US20200397896A1, “Combination Therapies Comprising Daratumumab, Bortezomib, Thalidomide and Dexamethasone and Their Uses” (Janssen Biotech, Inc., priority 2019, published 2020)

Assays:
[1] = system: patients with multiple myeloma; assay: Clinical trials pooled (monotherapy and combination treatments; N=2,066), safety
[2] = system: adult patients with relapsed and refractory multiple myeloma; assay: DARZALEX monotherapy safety, three open-label clinical trials
Text: (§2) The median duration of exposure was 3.3 months (range: 0.03 to 20.04 months).

[3] = system: patients with multiple myeloma; details: human, in vivo
[4] = system: adult patients with relapsed and refractory multiple myeloma; details: human, in vivo
Text: as §2

[5] = system: patients with relapsed or refractory multiple myeloma who had received at least 2 different cytoreductive therapies; assay: GEN501 open-label dose escalation trial, DARZALEX monotherapy efficacy; assay type: in vivo, human
Text: (§1) Treatment continued until unacceptable toxicity or disease progression.

[6] = Clinical pharmacokinetics of daratumumab; details: 1 to 24 mg/kg monotherapy or 1 to 16 mg/kg combination therapy
[7] = human, in vivo
[8] = DARZALEX solution pH and storage of diluted solution; assay type: physicochemical
Text: Prepare the solution for infusion using aseptic technique as follows: • Calculate the dose (mg), total volume (mL) of DARZALEX solution required and the number of DARZALEX vials needed based on patient actual body weight. • Check that the DARZALEX solution is colorless to pale yellow. […] Infusion bags/containers must be made of either polyvinylchloride (PVC), polypropylene (PP), polyethylene (PE) or polyolefin blend (PP+PE). Dilute under appropriate aseptic conditions. Discard any unused portion left in the vial. • Gently invert the bag/container to mix the solution. […] The diluted solution may develop very small, translucent to white proteinaceous particles, as daratumumab is a protein. […] (59° F.-77° F.) and in room light. Diluted solution may be kept at room temperature for a maximum of 15 hours (including infusion time). • If not used immediately, the diluted solution can be stored prior to administration for up to 24 hours at refrigerated conditions 2° C.-8° C. (36° F.-46° F.) and protected from light.
DARZALEX is supplied as a colorless to pale yellow preservative-free solution for intravenous infusion in single-dose vials. The pH is 5.5.

[9] = system: anti-daratumumab antibodies; assay: Immunogenicity in clinical trials; assay type: in vivo, human
Text: As with all therapeutic proteins, there is the potential for immunogenicity. The detection of antibody formation is highly dependent on the sensitivity and specificity of the assay. Additionally, the observed incidence of antibody (including neutralizing antibody) positivity in an assay may be influenced by several factors including assay methodology, sample handling, timing of sample collection, concomitant medications, and underlying disease. For these reasons, comparison of the incidence of antibodies to daratumumab in the studies described below with the incidence of antibodies in other studies or to other products may be misleading. […] One patient administered DARZALEX as combination therapy, developed transient neutralizing antibodies against daratumumab. However, this assay has limitations in detecting anti-daratumumab antibodies in the presence of high concentrations of daratumumab; therefore, the incidence of antibody development might not have been reliably determined.

[10] = system: patients with newly diagnosed multiple myeloma eligible for ASCT; details: in vivo
Text: Safety evaluations will include adverse event monitoring, physical examinations, electrocardiogram monitoring (ECGs), clinical laboratory parameters (hematology and chemistry), vital sign measurements, and Eastern Cooperative Oncology Group (ECOG) performance status.
In general, adverse events that occurred during the induction/consolidation and maintenance stages will be summarized separately. Treatment-emergent adverse events for each stage will be defined as events that occur or worsen after administration of the first dose of during that stage and through 30 days after the last dose of study drug in that stage and before the next phase of treatment begins.
Melphalan 200 mg/m^2 was pre-ASCT high-dose therapy.

[11] = system: patients with relapsed or refractory multiple myeloma who had received at least 3 prior lines of therapy; assay: SIRIUS open-label trial, DARZALEX monotherapy efficacy; assay type: in vivo, human
Text: as §1

[12] = monotherapy 16 mg/kg, N = 156, treatment-emergent laboratory abnormality

DARZALEX: IgG1κ human monoclonal antibody against CD38; HC SEQ ID NO: 9, LC SEQ ID NO: 10
Grade 3/4 infusion reaction at Week 2 or subsequent infusions ([1]; N=2,066): Less than 1% | incidence of any grade infusion reactions, Week 2 infusion ([1]; N=2,066): 2% | incidence of any grade infusion reactions, first (16 mg/kg, Week 1) infusion ([1]; N=2,066): 37% | incidence of any grade infusion reactions, subsequent infusions (cumulatively) ([1]; N=2,066): 6% | incidence of infusion modification due to reactions ([1]; N=2,066): 36% | patients who experienced an infusion reaction ([1]; clinical trials, all patients): approximately half | persistence of positive indirect antiglobulin test after the last infusion ([1]; human, in vivo): up to 6 months | Serious adverse reaction: general physical health deterioration ([2]; monotherapy): 3% | Serious adverse reaction: pneumonia ([2]; monotherapy): 6% | Serious adverse reaction: pyrexia ([2]; monotherapy): 3% | discontinuations due to adverse reactions ([2]; monotherapy): 4% | treatment delay due to adverse reactions ([2]; monotherapy): 15% | Arthralgia, Any Grade ([2]; monotherapy 16 mg/kg, N = 156): 17% | Arthralgia, Grade 3 ([2]; monotherapy 16 mg/kg, N = 156): 0% | Arthralgia, Grade 4 ([2]; monotherapy 16 mg/kg, N = 156): 0% | Back pain, Any Grade ([2]; monotherapy 16 mg/kg, N = 156): 23% | Back pain, Grade 3 ([2]; monotherapy 16 mg/kg, N = 156): 2% | Back pain, Grade 4 ([2]; monotherapy 16 mg/kg, N = 156): 0% | Chills, Any Grade ([2]; monotherapy 16 mg/kg, N = 156): 10% | Chills, Grade 3 ([2]; monotherapy 16 mg/kg, N = 156): 0% | Chills, Grade 4 ([2]; monotherapy 16 mg/kg, N = 156): 0% | Constipation, Any Grade ([2]; monotherapy 16 mg/kg, N = 156): 15% | Constipation, Grade 3 ([2]; monotherapy 16 mg/kg, N = 156): 0% | Constipation, Grade 4 ([2]; monotherapy 16 mg/kg, N = 156): 0% | Cough, Any Grade ([2]; monotherapy 16 mg/kg, N = 156): 21% | Cough, Grade 3 ([2]; monotherapy 16 mg/kg, N = 156): 0% | Cough, Grade 4 ([2]; monotherapy 16 mg/kg, N = 156): 0% | Decreased appetite, Any Grade ([2]; monotherapy 16 mg/kg, N = 156): 15% | Decreased appetite, Grade 3 ([2]; monotherapy 16 mg/kg, N = 156): 1% | Decreased appetite, Grade 4 ([2]; monotherapy 16 mg/kg, N = 156): 0% | Diarrhea, Any Grade ([2]; monotherapy 16 mg/kg, N = 156): 16% | Diarrhea, Grade 3 ([2]; monotherapy 16 mg/kg, N = 156): 1% | Diarrhea, Grade 4 ([2]; monotherapy 16 mg/kg, N = 156): 0% | Dyspnea, Any Grade ([2]; monotherapy 16 mg/kg, N = 156): 15% | Dyspnea, Grade 3 ([2]; monotherapy 16 mg/kg, N = 156): 1% | Dyspnea, Grade 4 ([2]; monotherapy 16 mg/kg, N = 156): 0% | Fatigue, Any Grade ([2]; monotherapy 16 mg/kg, N = 156): 39% | Fatigue, Grade 3 ([2]; monotherapy 16 mg/kg, N = 156): 2% | Fatigue, Grade 4 ([2]; monotherapy 16 mg/kg, N = 156): 0% | Headache, Any Grade ([2]; monotherapy 16 mg/kg, N = 156): 12% | Headache, Grade 3 ([2]; monotherapy 16 mg/kg, N = 156): 1% | Headache, Grade 4 ([2]; monotherapy 16 mg/kg, N = 156): 0% | Hypertension, Any Grade ([2]; monotherapy 16 mg/kg, N = 156): 10% | Hypertension, Grade 3 ([2]; monotherapy 16 mg/kg, N = 156): 5% | Hypertension, Grade 4 ([2]; monotherapy 16 mg/kg, N = 156): 0% | Infusion reaction, Any Grade ([2]; monotherapy 16 mg/kg, N = 156): 48% | Infusion reaction, Grade 3 ([2]; monotherapy 16 mg/kg, N = 156): 3% | Infusion reaction, Grade 4 ([2]; monotherapy 16 mg/kg, N = 156): 0% | Musculoskeletal chest pain, Any Grade ([2]; monotherapy 16 mg/kg, N = 156): 12% | Musculoskeletal chest pain, Grade 3 ([2]; monotherapy 16 mg/kg, N = 156): 1% | Musculoskeletal chest pain, Grade 4 ([2]; monotherapy 16 mg/kg, N = 156): 0% | Nasal congestion, Any Grade ([2]; monotherapy 16 mg/kg, N = 156): 17% | Nasal congestion, Grade 3 ([2]; monotherapy 16 mg/kg, N = 156): 0% | Nasal congestion, Grade 4 ([2]; monotherapy 16 mg/kg, N = 156): 0% | Nasopharyngitis, Any Grade ([2]; monotherapy 16 mg/kg, N = 156): 15% | Nasopharyngitis, Grade 3 ([2]; monotherapy 16 mg/kg, N = 156): 0% | Nasopharyngitis, Grade 4 ([2]; monotherapy 16 mg/kg, N = 156): 0% | Nausea, Any Grade ([2]; monotherapy 16 mg/kg, N = 156): 27% | Nausea, Grade 3 ([2]; monotherapy 16 mg/kg, N = 156): 0% | Nausea, Grade 4 ([2]; monotherapy 16 mg/kg, N = 156): 0% | Pain in extremity, Any Grade ([2]; monotherapy 16 mg/kg, N = 156): 15% | Pain in extremity, Grade 3 ([2]; monotherapy 16 mg/kg, N = 156): 1% | Pain in extremity, Grade 4 ([2]; monotherapy 16 mg/kg, N = 156): 0% | Pneumonia, Any Grade ([2]; monotherapy 16 mg/kg, N = 156): 11% | Pneumonia, Grade 3 ([2]; monotherapy 16 mg/kg, N = 156): 6% | Pneumonia, Grade 4 ([2]; monotherapy 16 mg/kg, N = 156): 0% | Pyrexia, Any Grade ([2]; monotherapy 16 mg/kg, N = 156): 21% | Pyrexia, Grade 3 ([2]; monotherapy 16 mg/kg, N = 156): 1% | Pyrexia, Grade 4 ([2]; monotherapy 16 mg/kg, N = 156): 0% | Vomiting, Any Grade ([2]; monotherapy 16 mg/kg, N = 156): 14% | Vomiting, Grade 3 ([2]; monotherapy 16 mg/kg, N = 156): 0% | Vomiting, Grade 4 ([2]; monotherapy 16 mg/kg, N = 156): 0% | Anemia, Any Grade [2, 12]: 45% | Anemia, Grade 3 [2, 12]: 19% | Anemia, Grade 4 [2, 12]: 0% | Lymphopenia, Any Grade [2, 12]: 72% | Lymphopenia, Grade 3 [2, 12]: 30% | Lymphopenia, Grade 4 [2, 12]: 10% | Neutropenia, Any Grade [2, 12]: 60% | Neutropenia, Grade 3 [2, 12]: 17% | Neutropenia, Grade 4 [2, 12]: 3% | Thrombocytopenia, Any Grade [2, 12]: 48% | Thrombocytopenia, Grade 3 [2, 12]: 10% | Thrombocytopenia, Grade 4 [2, 12]: 8% | Serious adverse reactions, patients ([2]; monotherapy, 156 patients): 33% | Hepatitis B virus reactivation [3]: less than 1% | herpes zoster [4]: 3% | CR, number of patients ([5]; GEN501): 1 | VGPR, number of patients ([5]; GEN501): 3 | median duration of response ([5]; GEN501): not estimable | median time to response ([5]; GEN501): 1 month | Overall response rate ([5]; GEN501, 42 patients, 16 mg/kg): 36% | area under the concentration-time curve (AUC) versus dose [6]: increases more than proportionally | linear clearance, mean±SD [7]: 171.4 ± 95.3 mL/day | terminal half-life associated with linear clearance, mean±SD [7]: 18 ± 9 days | time to steady state into the every 4-week dosing period [7]: approximately 5 months | trough serum concentration (Cmin) at the end of weekly dosing, mean±SD [7]: 573 ± 332 µg/mL | volume of distribution [7]: 4.7 ± 1.3 L | storage time of diluted solution at refrigerated conditions ([8]; 2° C.-8° C., protected from light): up to 24 hours | storage time of diluted solution at room temperature (including infusion time) ([8]; 15° C.-25° C., room light, diluted in 0.9% Sodium Chloride): ≤ 15 h | pH of solution ([8]; single-dose vial solution): 5.5 | patients positive for anti-daratumumab antibodies ([9]; 111 evaluable monotherapy patients): none | patients positive for anti-daratumumab antibodies ([9]; 1,050 evaluable combination therapy patients): 2 | patients who developed transient neutralizing antibodies against daratumumab ([9]; combination therapy): One | IRRs Grade 3 or 4 at re-initiation following ASCT [10]: < 1% | incidence of IRRs, first infusion following ASCT [10]: 11% | median duration of response [11]: 7.4 months | median time to response [11]: 1 month | Overall response rate (ORR) ([11]; N = 106): (29.2%) | Partial response (PR) ([11]; N = 106): (17.0%) | Stringent complete response (sCR) ([11]; N = 106): (2.8%) | Very good partial response (VGPR) ([11]; N = 106): (9.4%)
